Reference: patent US20100317583A1, “TREATMENT OF MELANOMA WITH ALPHA THYMOSIN PEPTIDES IN COMBINATION WITH AN ANTINEOPLASTIC HEAT SHOCK APOPTOSIS ACTIVATOR (HSAA)” (SciClone Pharmaceuticals, Inc., priority 2007, published 2010)
Where two headings read alike, the source gives them in different places. No end group written: not given here.

Type: in vivo
Settings: for Body weight (Mean ± SD) / PI (BW), inhibition of body weight vs vehicle: low-dose arms: TA-1 6 mg/kg s.c. daily, Pac 10 + Ele 10 mg/kg co-i.v. Days 1, 7, 13
Protocol: In this study, the anti-tumor effect of the combined treatment of thymosin alpha-1 (TA-1), Paclitaxel (Pac) and Elesclomol (Ele) was evaluated in C57BL/6 mice bearing B16 melanoma cells. The toxic effects of the dosing regimens were also monitored. A total of 60 mice were implanted subcutaneously with murine B16 cells, followed by treatment with TA-1 or Pac/Ele alone or in combination for 14 consecutive days. TA-1 was given daily via s.c., while Pac and Ele were co-i.v. administered on Day 1, 7 and 13. In total, 6 groups were used: Group 1: vehicle; Group 2: TA-1 6 mg/kg; Group 3: Pac 10 mg/kg+Ele 10 mg/kg; Group 4: Pac 30 mg/kg+Ele 30 mg/kg; Group 5: TA-1 6 mg/kg+Pac 10 mg/kg+Ele 10 mg/kg; and Group 6: TA-1 6 mg/kg+Pac 30 mg/kg+Ele 30 mg/kg. Tumor volume and body weight were measured every three days, and tumor weights were measured on Day 17 at the end of the study.
On Day 1, the animals were randomly assigned into different weight-matched groups, and dosing was started using the regimen according to Table 2. Briefly, TA-1 was administered once daily via subcutaneous (s.c.) injection for 14 consecutive days at a site different from that of tumor cell implantation, while Pac and Ele was administered on Days 1, 7, and 13 via an intravenous (i.v.) injection.
From Day 1 to Day 15, mortality and moribundity were checked twice daily, the body weights were recorded once every 3 days, and tumors were measured using a caliper once every 3 days. At the end of the study (Day 17), the animals were euthanized by CO2 asphyxiation, and the tumors were excised and weighed.
Toxicity of all treatment regimens was evaluated with the body weights of the study animals along with the drug-induced animal deaths. The inhibition of body weight was calculated using Excel according to the equation below:
PIBW(%)=100×(BW vehicle−BW drug treated)/BW vehicle
Inter-group comparison was performed in terms of tumor volume, tumor weight and body weight, using a student's t test. P values of less than 0.05 were considered to be statistically significant.

Substance: thymosin alpha 1 (SDAAVDTSSEITTKDLKEKKEVVEEAEN; ends and bridges not checked; UniProt P06454 2-29, looked up) [TA-1, 28 amino acid peptide with a molecular weight of 3108; immunomodulator]
- Body weights (Day 0, animal F1): 21.5 g
- Body weights (Day 0, animal F2): 20.8 g
- Body weights (Day 0, animal F3): 19.3 g
- Body weights (Day 0, animal F4): 20.0 g
- Body weights (Day 0, animal F5): 19.9 g
- Body weights (Day 0, animal M1): 21.8 g
- Body weights (Day 0, animal M2): 21.5 g
- Body weights (Day 0, animal M3): 22.9 g
- Body weights (Day 0, animal M4): 20.7 g
- Body weights (Day 0, animal M5): 21.4 g
- Body weights (Day 3, animal F2): 19.0 g
- Body weights (Day 3, animal F3): 20.2 g
- Body weights (Day 3, animal F4): 19.8 g
- Body weights (Day 3, animal F5): 19.1 g
- Body weights (Day 3, animal M1): 21.1 g
- Body weights (Day 3, animal M2): 17.8 g
- Body weights (Day 3, animal M3): 19.7 g
- Body weights (Day 3, animal M4): 20.4 g
- Body weights (Day 3, animal M5): 19.8 g
- Body weight (Mean ± SD) (Day 3): 19.44 ± 1.12 g
- PI (BW), inhibition of body weight vs vehicle (Day 3): 1.17%
- Body weights (Day 6, animal F2): 21.2 g
- Body weights (Day 6, animal F3): 21.2 g
- Body weights (Day 6, animal F4): 20.7 g
- Body weights (Day 6, animal F5): 21.5 g
- Body weights (Day 6, animal M1): 22.8 g
- Body weights (Day 6, animal M2): 22.3 g
- Body weights (Day 6, animal M3): 22.7 g
- Body weights (Day 6, animal M4): 21.1 g
- Body weights (Day 6, animal M5): 22.2 g
- Body weight (Mean ± SD) (Day 6): 21.63 ± 0.81 g
- PI (BW), inhibition of body weight vs vehicle (Day 6): −0.42%
- Body weights (Day 9, animal F1): 20.4 g
- Body weights (Day 9, animal F2): 20.7 g
- Body weights (Day 9, animal F3): 20.4 g
- Body weights (Day 9, animal F4): 20.2 g
- Body weights (Day 9, animal F5): 20.0 g
- Body weights (Day 9, animal M1): 22.5 g
- Body weights (Day 9, animal M2): 21.2 g
- Body weights (Day 9, animal M3): 22.5 g
- Body weights (Day 9, animal M4): 20.9 g
- Body weights (Day 9, animal M5): 21.7 g
- Body weight (Mean ± SD) (Day 9): 21.05 ± 0.91 g
- PI (BW), inhibition of body weight vs vehicle (Day 9): 1.13%
- Body weights (Day 12, animal F1): 21.5 g
- Body weights (Day 12, animal F2): 21.3 g
- Body weights (Day 12, animal F3): 20.2 g
- Body weights (Day 12, animal F4): 20.1 g
- Body weights (Day 12, animal F5): 20.1 g
- Body weights (Day 12, animal M1): 22.4 g
- Body weights (Day 12, animal M2): 21.5 g
- Body weights (Day 12, animal M3): 22.4 g
- Body weights (Day 12, animal M4): 21.0 g
- Body weights (Day 12, animal M5): 22.2 g
- Body weight (Mean ± SD) (Day 12): 21.27 ± 0.91 g
- PI (BW), inhibition of body weight vs vehicle (Day 12): 2.03%
- Body weights (Day 15, animal F1): 21.7 g
- Body weights (Day 15, animal F2): 21.5 g
- Body weights (Day 15, animal F3): 21.2 g
- Body weights (Day 15, animal F4): 21.2 g
- Body weights (Day 15, animal F5): 21.1 g
- Body weights (Day 15, animal M1): 22.5 g
- Body weights (Day 15, animal M2): 22.5 g
- Body weights (Day 15, animal M3): 23.4 g
- Body weights (Day 15, animal M4): 22.0 g
- Body weights (Day 15, animal M5): 23.6 g
- Body weight (Mean ± SD) (Day 15): 22.07 ± 0.91 g
- PI (BW), inhibition of body weight vs vehicle (Day 15): 1.25%
